Data on one substance can be found in US20120064150A1.

For experiment [1], the target named is inter-α-inhibitor (IαI) (human) (UniProt P02760).
The target is the same in experiment [2]. The experiment is described as follows: cell-based or functional assay.

UniProt P02760, sequence (P02760 206-352): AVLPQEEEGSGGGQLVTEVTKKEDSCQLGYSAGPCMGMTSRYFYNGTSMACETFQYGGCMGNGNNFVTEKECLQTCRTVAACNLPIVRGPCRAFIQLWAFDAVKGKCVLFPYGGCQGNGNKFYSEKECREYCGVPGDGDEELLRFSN

For “TNF-stimulated gene 6 protein (TSG-6), recombinant (from UniProt P98066 18-277)”, the EC50 (read off the curve): TSG-6 concentration for half-maximal HC transfer from plasma IαI (1:1000) to Cov-HA in experiment [1] came out at 0.4 nM. In experiment [2], the HC transfer to Cov-HA in the presence of 50 nM TSG-6, plasma dilution series came out at 200 pM; the decrease in HC transfer to Cov-HA in the presence of 50 nM TSG-6, plasma dilution 1:4000 stood at 50%; the transfer of HCs from IαI in human plasma (1:1000) to Cov-HA, detected with anti-HC antibody stood at 16 µM.
